The values that follow come from US10450596.

This data set has as its target histone H3 trimethylated at lysine 9 (H3K9me3) in bulk calf thymus histones (Sigma).

B1: GST-tagged KDM4C (BPS Bioscience) (protein)
chain: EVAEVESPLNPSCKIMTFRPSMEEFREFNKYLAYMESKGAHRAGLAKVIPPKEWKPRQCYDDIDNLLIPAPIQQMVTGQSGLFTQYNIQKKAMTVKEFRQLANSGKYCTPRYLDYEDLERKYWKNLTFVAPIYGADINGSIYDEGVDEWNIARLNTVLDVVEEECGISIEGVNTPYLYFGMWKTTFAWHTEDMDLYSINYLHFGEPKSWYAIPPEHGKRLERLAQGFFPSSSQGCDAFLRHKMTLISPSVLKKYGIPFDKITQEAGEFMITFPYGYHAGFNHGFNCAESTNFATVRWIDYGKVAKLCTCRKDMVKISMDIFVRKFQPDRYQLWKQGKDIYTIDHTKPTPASTPEVKAWLQRRRKVRKASRS
For the protein B1, the “in vitro histone demethylation assay; H3K9me3 assessed by Western blot” value is given as “Addition of purified KDM4C to histone substrates resulted in demethylation of H3K9me3”.
